Patent CN113546252A

Target: 人PCSK9-D347Y (human) (UniProt Q8NBP7)
Test: cell-based or functional assay

Substance	促LDL内吞 (HepG2细胞LDL摄取法) EC50
Evolocumab (antibody)	0.151 µg/mL
JS002 (antibody)	0.0927 µg/mL
